In test [1] the target is YPet (Yellow fluorescent Protein for energy transfer). The experiment in a line: AUC; sedimentation velocity on cleared bacterial lysates of expressing cultures, detection at 515 nm; 4.6 μM YPet in 14.3 mg/mL lysate, 6.2 μM mCLIFY in 13.7 mg/ml lysate.
Test [2] has the same target. The experiment in a line: AUC; sedimentation velocity, purified protein, 20 °C, PBS, 2-40 μM monomer, 40,000 rpm; c(s) fits in SEDFIT; monomer-dimer association model in SEDPHAT; constant is of dimer to monomers.
For test [3] the target is unchanged. The experiment in a line: SEC-MALS; in line with SAXS; 100 μl of 260 μM YPet or 230 μM mCLIFY injected, Shodex 804 column, PBS, room temperature; 53 μM (YPet) and 48 μM (mCLIFY) at peak. In general terms: SEC sorts molecules by how far they enter the pores of the column.
Test [4] has the same target. The experiment in a line: SEC-SAXS; synchrotron SAXS in line with SEC; 260 μM YPet or 230 μM mCLIFY injected, PBS, room temperature; SVD-EFA, mass from Qr and Porod.

In article PMC11276004 one finds stoichiometry N and Kd data, which are given here for 1 substance.

As a reminder, the stoichiometry N is the number of molecules, sites or subunits per partner or assembly. Broadly, the Kd is the constant that tells how readily two partners part at equilibrium. As to “YPet (Yellow fluorescent Protein for energy transfer)”, the stoichiometry N in test [1], in test [2], in test [3] and in test [4] was 2 each time. Further, the Kd in test [2] was 3.4 µM.
